The values that follow come from patent US7820179B2, “Pegylated PTH as PTH receptor modulators and uses thereof” (Eli Lilly and Company, priority 2006, dated 2010).

One series concerns the target T1, PTHR1 (PTH Receptor 1) (Homo sapiens, UniProt Q03431).
T1 construct: host or cells: HEK 293 cells
T1 sequence (Q03431 27-593): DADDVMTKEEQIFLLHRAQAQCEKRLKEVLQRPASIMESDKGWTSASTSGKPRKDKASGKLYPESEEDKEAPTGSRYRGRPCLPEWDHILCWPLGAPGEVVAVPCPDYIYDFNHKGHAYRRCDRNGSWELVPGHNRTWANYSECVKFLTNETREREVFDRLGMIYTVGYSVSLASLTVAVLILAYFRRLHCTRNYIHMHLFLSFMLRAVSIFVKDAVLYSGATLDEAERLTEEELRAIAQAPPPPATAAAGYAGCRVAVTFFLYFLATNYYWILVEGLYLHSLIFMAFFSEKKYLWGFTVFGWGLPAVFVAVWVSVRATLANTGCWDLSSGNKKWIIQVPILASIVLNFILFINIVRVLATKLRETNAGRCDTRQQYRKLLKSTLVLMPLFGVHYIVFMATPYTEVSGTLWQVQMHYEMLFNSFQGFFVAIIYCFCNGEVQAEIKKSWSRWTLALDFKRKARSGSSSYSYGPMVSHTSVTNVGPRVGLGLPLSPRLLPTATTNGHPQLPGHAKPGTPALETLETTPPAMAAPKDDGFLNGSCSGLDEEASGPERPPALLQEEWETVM
Put plainly: PTH receptor internalization in HEK 293 cells transfected with PTHR-emGFP. Format: cell-based. The note with it: 100 nM. As for the experimental part:
The kinetics of PTHR1 (PTH Receptor 1) internalization for compounds of the invention are determined following ligand binding to membrane receptors. HEK 293 cells are transfected with PTHR-emGFP plasmid (Invitrogen).
The cells are seeded at 7,000 cells/well, 100 μL/well into clear bottomed, black, 96 well plate coated with poly-D lysine. 24 hours after being seeded into the 96 well plate, the cells are dosed with 10 μL of a compound to be tested, at final concentrations of 100 nM at staggered time points from 0 minutes to 3 hours. Media is aspirated at end point of dosing. Cells are fixed with 100 μL Prefer (Anatech, Battle Creek, Mich.) for 30 minutes. Prefer is aspirated from the cells, and cells are washed three times with 100 μL 1×PBS. Cells are stained with 100 μL diluted Hoechst nuclear stain (diluted in 1×PBS) for 30 minutes. Hoechst stain is aspirated and replaced with 1×PBS. Plates are stored in the dark at 4° C. until scanning. Cells are scanned within 48 hours using a Cellomics® ArrayScan. Representative data from various timepoints, set forth as percent of vehicle only control (baseline=100%), are presented in Table 8.

Series [1] concerns aged osteopenic ovariectomized rats. Nature of the series: Aged osteopenic ovariectomized rats: vertebral BMD/BMC, bone biomechanical strength, serum calcium. To be noted: for Hypercalcemic Dose/Femoral Neck Strength Dose / Hypercalcemic Dose/Midshaft Strength Dose / Hypercalcemic Dose/Vertebral BMC Dose / Hypercalcemic Dose/Vertebral BMD Dose / Hypercalcemic Dose/Vertebral Strength Dose: derived from Table 3; for Vertebral BMC Dose: dose at which Sham level of vertebral BMC is achieved; for Vertebral BMD Dose: dose at which Sham level of vertebral BMD is achieved, s.c. every 6 or 7 days for two months; for Fem Neck Strength Dose: dose at which femoral neck strength comparable to sham vehicle control and positive control is achieved; for Midshaft Strength Dose: dose at which midshaft strength comparable to sham vehicle control and positive control is achieved; for Vertebral Strength Dose: dose at which vertebral strength comparable to sham and positive control is achieved; for Hypercalcemia Dose: sera 24 hours after administration, > means highest dose tested, not reached. Format: in vivo, rat. The method, then: Hypercalcemia is defined herein as the upper 97.5 percentile serum calcium value of normal ovariectomized vehicle controls for the animal type used, using clinical chemistry data and sera collected from cardiac puncture (International Federation of Clinical Chemistry, H E Solberg in Tietz Fundamentals of Clinical Chemistry, 5th edition, Burtis C A and Ashwood E R, editors, 2001, pp 251-261). The value reflecting the 97.5 percentile is 11.2 mg of calcium per dL of serum from ovx vehicle control. The “Hypercalcemic Dose”, i.e., the dose at which hypercalcemia is observed 24 hours after injection of the test compound using clinical chemistry data and sera collected from cardiac puncture, is determined by interpolation, using regression analysis to fit the calcemic dose response observed 24 hours after administering the compound to ovariectomized rats.
Female Sprague-Dawley rats about 6 months of age are ovariectomized, except for sham controls, and maintained on a 12 hour light/dark cycle at 22° C. with ad lib access to food (TD 89222 with 0.5% Ca and 0.4% P, Teklad, Madison, Wis.) and water. Ovariectomized (Ovx) rats are allowed to lose bone for one month before treatment with compounds of the invention for two additional months. The compound to be tested is subcutaneously administered at various doses (as indicated in Table 3 below) in a vehicle of 20 mM NaH2PO4 in 0.9% NaCl, 3 mg/ml mannitol, pH 5, every 6 or 7 days for two months. Sham and Ovx controls are treated with the vehicle only (“sham vehicle control” and “ovx vehicle control”). Sera are then collected by cardiac puncture under isoflurane anesthesia at necropsy, and analyzed using a clinical chemistry analyzer. Lumbar vertebra L4-6 and left femora are removed, cleaned of soft-tissue and stored in 50% ethanol/saline at 4° C. At room temperature, L-5 in 50% EtOH/saline are wrapped in Parafilm and centered with respect to the QCT gantry (Research M, Stratec). A coronal scout scan of the L-5 vertebra is generated first in 2D before 3D analysis. QCT parameters are measured including BMD (mg/cc), BMC (mg), and cross-sectional area (mm^2). Lumbar vertebra L-5, femoral midshaft, and proximal femur are then prepared for biomechanical testing. Strength (N) is evaluated by loading the specimens to failure as described previously (Sato, et al., Endocrinology, […]:4330-4337, 1997).
Pegylated compounds of the invention are evaluated in this assay relative to a positive control of 3-5 μg/kg/d PTH(1-38). PTH(1-34) and PTH(1-38) are found to be indistinguishable in terms of skeletal efficacy or calcemic effects in osteopenic ovariectomized rats. It has been previously shown that rats administered 5 μg/kg/d (1 nmol/kg/d) PTH(1-34) have a systemic exposure that is about 3 times that of PTH(1-34) (i.e., FORTEO™) in humans (Tashjian and Chabner, J. Bone Miner Res, 17:1151-1161, 2002; Tashjian and Gagel, J. Bone Miner Res, 21:354-365, 2006). […] This is confirmed for PTH(1-38) in this model with a dosing of 3-5 μg/kg/d.

Series [2] shares this test system. Put plainly: Direct comparison of 2 kD and 5 kD pegylated SEQ ID NO: 1 in aged osteopenic ovariectomized rats. Format: in vivo, rat. To be noted: for Serum Calcium: 24 hours after dosing. From the text: A compound of the invention with SEQ ID NO: 1, wherein the mPEG to which it is conjugated is a 2 kD mPEG, is directly compared to a compound of the invention with SEQ ID NO: 1, wherein the mPEG to which it is conjugated is a 5 kD mPEG. Aged osteopenic ovariectomized rats are permitted to lose bone for one month before dosing (nmol/kg as in Table 5 and 6) every 6 days with vehicle alone, or the 2 kD pegylated SEQ ID NO: 1 compound or the 5 kD pegylated SEQ ID NO: 1 compound for 8 weeks.

[3] abbreviates: 11 nmol/kg every 6 days for 8 weeks.
Where [4] appears, read: 32 nmol/kg every 6 days for 8 weeks.
[5] abbreviates: 110 nmol/kg every 6 days for 8 weeks.

No end group written: not given here.

As for “SEQ ID NO: 1 but unpegylated and Lysine at amino acid 26: unpegylated molecule with the backbone of SEQ ID NO: 1 with a lysine residue at position 26 (SVSEIQLMHNLGRHLASMERVEWLRKLLQDVHNF-NH2)”, the “PTHR1 internalization, percent of vehicle only control (baseline=100%)” value with PTHR1 (PTH Receptor 1) (20 min) is on record as 106%; with PTHR1 (PTH Receptor 1) (40 min), 126%; in the series with PTHR1 (PTH Receptor 1) (60 min), 113%; with PTHR1 (PTH Receptor 1) (180 min) it was 142%.
With “SEQ ID NO: 3 with 2 kD mPEG (PVSEIQLMHNLGRHLASMERVEWLRKLLQDVHNF-NH2; also: 2 kD mPEG, site not given here)”, in series [1], the “Hypercalcemic Dose/Femoral Neck Strength Dose” value is 8.8, the “Hypercalcemic Dose/Midshaft Strength Dose” value was 8.8, the “Hypercalcemic Dose/Vertebral BMC Dose” value is given as 8.8 and the “Hypercalcemic Dose/Vertebral BMD Dose” value was >0.9. In series [1], the “Hypercalcemic Dose/Vertebral Strength Dose” value is on record as >0.9, the “Vertebral BMC Dose” value came to 11 nmol/kg, the “Vertebral BMD Dose” value is recorded as >110 nmol/kg and the “Fem Neck Strength Dose” value was 11 nmol/kg. In series [1], the “Midshaft Strength Dose” value came to 11 nmol/kg, the “Vertebral Strength Dose” value is >110 nmol/kg and the “Hypercalcemia Dose” value is 97 nmol/kg.
“PTH(1-38): positive control, parathyroid hormone fragment 1-38 (SVSEIQLMHNLGKHLNSMERVEWLRKKLQDVHNFVALG) [reference compound]”: the “Restoration of vertebral BMD from Ovx to sham vehicle control levels” value in series [1] (3-5 μg/kg/d, positive control) was “confirmed”. The “PTHR1 internalization, percent of vehicle only control (baseline=100%)” value with PTHR1 (PTH Receptor 1) (20 min) is given as 166%; with PTHR1 (PTH Receptor 1) (40 min) it was 177%; with PTHR1 (PTH Receptor 1) (60 min) it was 224%; in the series with PTHR1 (PTH Receptor 1) (180 min), 175%.
Consider “SEQ ID NO: 1 with 2 kD mPEG (SVSEIQLMHNLGRHLASMERVEWLRKLLQDVHNF-NH2; not fully specified (residue 26))”, for which, in series [2] (setting [3]), the “Vertebral BMD” value was found to be 590 mg/cc and the “Serum Calcium” value worked out at 10.45 mg/dL. In series [2] (setting [4]), the “Vertebral BMD” value stood at 603 mg/cc and the “Serum Calcium” value stood at 10.38 mg/dL. In series [2] (setting [5]), the “Vertebral BMD” value is 623 mg/cc and the “Serum Calcium” value worked out at 10.25 mg/dL. For the same substance, the “Hypercalcemia at the highest dose tested” value in series [1] (aged Ovx rats) is “absence of hypercalcemia”. In series [1], the “Hypercalcemic Dose/Femoral Neck Strength Dose” value is on record as >10.0, the “Hypercalcemic Dose/Midshaft Strength Dose” value is listed as >3.43, the “Hypercalcemic Dose/Vertebral BMC Dose” value is >3.43 and the “Hypercalcemic Dose/Vertebral BMD Dose” value is on record as >1.0. Moreover, in series [1], the “Hypercalcemic Dose/Vertebral Strength Dose” value is reported as >10.0, the “Vertebral BMC Dose” value is recorded as 32 nmol/kg, the “Vertebral BMD Dose” value turned out to be 110 nmol/kg and the “Fem Neck Strength Dose” value was determined as 11 nmol/kg. For the same substance, in series [1], the “Midshaft Strength Dose” value came out at 32 nmol/kg, the “Vertebral Strength Dose” value is 11 nmol/kg and the “Hypercalcemia Dose” value is listed as >110 nmol/kg.
